Measured values taken from paper PMC11736007.

Target: Orai1β-eGFP (UniProt Q96D31)
Assay: co-IP; Orai1-KO MCF7 cells co-transfected with an Orai1 variant and mCherry-SPCA2; lysis in 1% IGEPAL CA-630 buffer pH 8; immunoprecipitation with anti-Orai1 antibody and protein A-agarose at 4 °C overnight; Western blot with anti-mCherry; signal normalised to input and to immunoprecipitated Orai1

Chain of UniProt Q96D31 (Q96D31 64-301): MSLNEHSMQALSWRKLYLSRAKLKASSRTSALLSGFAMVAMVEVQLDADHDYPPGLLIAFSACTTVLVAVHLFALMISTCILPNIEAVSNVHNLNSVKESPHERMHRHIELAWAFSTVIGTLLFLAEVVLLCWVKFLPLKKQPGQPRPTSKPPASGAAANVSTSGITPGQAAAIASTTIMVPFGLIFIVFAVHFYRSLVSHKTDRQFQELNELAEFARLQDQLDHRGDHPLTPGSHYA

B1: mCherry-SPCA2 (natural protein)
chain: MVEGRVSEFLKKLGFSGGGRQYQALEKDEEEALIDEQSELKAIEKEKKVTALPPKEACKCQKEDLARAFCVDLHTGLSEFSVTQRRLAHGWNEFVADNSEPVWKKYLDQFKNPLILLLLGSALVSVLTKEYEDAVSIATAVLVVVTVAFIQEYRSEKSLEELTKLVPPECNCLREGKLQHLLARELVPGDVVSLSIGDRIPADIRLTEVTDLLVDESSFTGEAEPCSKTDSPLTGGGDLTTLSNIVFMGTLVQYGRGQGVVIGTGESSQFGEVFKMMQAEETPKTPLQKSMDRLGKQLTLFSFGIIGLIMLIGWSQGKQLLSMFTIGVSLAVAAIPEGLPIVVMVTLVLGVLRMAKKRVIVKKLPIVETLGCCSVLCSDKTGTLTANEMTVTQLVTSDGLRAEVSGVGYDGQGTVCLLPSKEVIKEFSNVSVGKLVEAGCVANNAVIRKNAVMGQPTEGALMALAMKMDLSDIKNSYIRKKEIPFSSEQKWMAVKCSLKTEDQEDIYFMKGALEEVIRYCTMYNNGGIPLPLTPQQRSFCLQEEKRMGSLGLRVLALASGPELGRLTFLGLVGIIDPPRVGVKEAVQVLSESGVSVKMITGDALETALAIGRNIGLCNGKLQAMSGEEVDSVEKGELADRVGKVSVFFRTSPKHKLKIIKALQESGAIVAMTGDGVNDAVALKSADIGIAMGQTGTDVSKEAANMILVDDDFSAIMNAVEEGKGIFYNIKNFVRFQLSTSISALSLITLSTVFNLPSPLNAMQILWINIIMDGPPAQSLGVEPVDKDAFRQPPRSVRDTILSRALILKILMSAAIIISGTLFIFWKEMPEDRASTPRTTTMTFTCFVFFDLFNALTCRSQTKLIFEIGFLRNHMFLYSVLGSILGQLAVIYIPPLQRVFQTENLGALDLLFLTGLASSVFILSELLKLCEKYCCSPKRVQMHPEDV
  percent decrease of co-precipitated SPCA2 against Orai1α: 63%
